Results reported in patent US6713247B1, “Human CNS cell lines and methods of use therefor” (Signal Pharmaceuticials, Inc., priority 1996, dated 2004).

Legend:
clone C10 = assay: Effects of EGF and PDGF on proliferation and survival, clone C10; format: cell-based, human
Procedure: (§1) EGF and PDGF Enhance Proliferation Rate and Cell Survival. To facilitate the expansion of the human CNS clones, we identified factors that increase the proliferation rate and/or cell survival. To examine the effects of EGF and PDGF on the proliferation and survival of the human CNS clones, 40 ng/mL EGF, 20 ng/mL PDGF or both were added to the standard growth medium, which already contained FGF-2 and 50% CM, and total cell number and BrdU uptake and incorporation were assessed as described above. For clone C2, EGF or PDGF addition increased the total cell number (FIG. 11A) by approximately 2-fold. This increase in cell number was due to enhanced cell viability (decreased cell death), since there were only slight increases in proliferation rate (assessed by BrdU uptake and incorporation, FIG. 11B). […] In the case of clone C10, EGF (but not PDGF) addition increased the total cell number (FIG. 12A) by approximately 40%. […] This increase in cell number was due, at least in part, to enhanced proliferation rates; BrdU uptake and incorporation increase about 2-fold with EGF or EGF+PDGF addition (FIG. 12B), and doubling times (based on cell counts as a function of days in vitro, data not shown) decreased from 3 days (no EGF or PDGF addition) to 2 days (EGF+PDGF addition). […]

clone C2 = assay: Effects of EGF and PDGF on proliferation and survival, clone C2; format: cell-based, human; details: added to growth medium with FGF-2 and 50% CM, EGF 40 ng/mL, PDGF 20 ng/mL
Procedure: as §1

B1: EGF: human recombinant epidermal growth factor (protein, UniProt P01133 23-1207, looked up)
Pro-epidermal growth factor: PQHWSCPEGTLAGNGNSTCVGPAPFLIFSHGNSIFRIDTEGTNYEQLVVDAGVSVIMDFHYNEKRIYWVDLERQLLQRVFLNGSRQERVCNIEKNVSGMAINWINEEVIWSNQQEGIITVTDMKGNNSHILLSALKYPANVAVDPVERFIFWSSEVAGSLYRADLDGVGVKALLETSEKITAVSLDVLDKRLFWIQYNREGSNSLICSCDYDGGSVHISKHPTQHNLFAMSLFGDRIFYSTWKMKTIWIANKHTGKDMVRINLHSSFVPLGELKVVHPLAQPKAEDDTWEPEQKLCKLRKGNCSSTVCGQDLQSHLCMCAEGYALSRDRKYCEDVNECAFWNHGCTLGCKNTPGSYYCTCPVGFVLLPDGKRCHQLVSCPRNVSECSHDCVLTSEGPLCFCPEGSVLERDGKTCSGCSSPDNGGCSQLCVPLSPVSWECDCFPGYDLQLDEKSCAASGPQPFLLFANSQDIRHMHFDGTDYGTLLSQQMGMVYALDHDPVENKIYFAHTALKWIERANMDGSQRERLIEEGVDVPEGLAVDWIGRRFYWTDRGKSLIGRSDLNGKRSKIITKENISQPRGIAVHPMAKRLFWTDTGINPRIESSSLQGLGRLVIASSDLIWPSGITIDFLTDKLYWCDAKQSVIEMANLDGSKRRRLTQNDVGHPFAVAVFEDYVWFSDWAMPSVMRVNKRTGKDRVRLQGSMLKPSSLVVVHPLAKPGADPCLYQNGGCEHICKKRLGTAWCSCREGFMKASDGKTCLALDGHQLLAGGEVDLKNQVTPLDILSKTRVSEDNITESQHMLVAEIMVSDQDDCAPVGCSMYARCISEGEDATCQCLKGFAGDGKLCSDIDECEMGVPVCPPASSKCINTEGGYVCRCSEGYQGDGIHCLDIDECQLGEHSCGENASCTNTEGGYTCMCAGRLSEPGLICPDSTPPPHLREDDHHYSVRNSDSECPLSHDGYCLHDGVCMYIEALDKYACNCVVGYIGERCQYRDLKWWELRHAGHGQQQKVIVVAVCVVVLVMLLLLSLWGAHYYRTQKLLSKNPKNPYEESSRDVRSRRPADTEDGMSSCPQPWFVVIKEHQDLKNGGQPVAGEDGQAADGSMQPTSWRQEPQLCGMGTEQGCWIPVSSDKGSCPQVMERSFHMPSYGTQTLEGGVEKPHSLLSANPLWQQRALDPPHQMELTQ
modifications: Pro-epidermal growth factor
increase in BrdU uptake and incorporation (clone C10): approximately 2 fold
increase in total cell number (clone C10; EGF 40 ng/mL added to growth medium with FGF-2 and 50% CM): approximately 40%
increase in total cell number (clone C2): approximately 2 fold
